Here are results for two proteins from paper PMC4777856, “Structural Basis of Stereospecificity in the Bacterial Enzymatic Cleavage of β-Aryl Ether Bonds in Lignin” (The Journal of Biological Chemistry, 2015).

Substrate in series [1]: COc1ccc(C(=O)[C@H](CO)Oc2ccc(C=O)cc2OC)cc1OC
In words: purified protein. The note with it: 5 mM GSH, 25 mM Tris, 2.5% DMSO, pH 8.0, 30 °C. It is filed as biochemical, Sphingobium sp. SYK-6.

Substrate in series [2]: COc1ccc(C(=O)[C@@H](CO)Oc2ccc(C=O)cc2OC)cc1OC
The series can be described thus: purified protein. It is filed as biochemical, Sphingobium sp. SYK-6. The note with it: 5 mM GSH, 25 mM Tris, 2.5% DMSO, pH 8.0, 30 °C.

B1: LigF (Sphingobium sp. SYK-6) (protein)
chain: MTLKLYSFGPGANSLKPLATLYEKGLEFEQVFVDPSKFEQHSDWFKKINPRGQVPALWHDGKVVTESTVICEYLEDVFPESGNSLRPADPFKRAEMRVWTKWVDEYFCWCVSTIGWAFGIKAIAQKMSDEEFEEHINKNVPIPEQQLKWRRARNGFPQEMLDEEFRKVGVSVARLEETLSKQDYLVDTGYSLADICNFAIANGLQRPGGFFGDYVNQEKTPGLCAWLDRINARPAIKEMFEKSKREDLLKRQNEKVA
notes: full-length wild type LigF (254 residues), vector pVP102KSSLigF; dimer
For the protein B1, in the series “purified protein [1]”, the Km – broadly, the substrate concentration at which the rate is half of its maximum – was found to be 269 ± 1 µM; the Vmax (as a rule, the top rate of the reaction or transport when substrate is in excess) is 63.8 µmol/min/mg; the kcat – broadly, the number of substrate molecules converted per active site and unit of time at saturation – stood at 31.9 ± 0.1 s⁻¹; the kcat/Km (commonly the second-order rate constant that governs catalysis at low substrate concentration) is 118400 ± 1100 M⁻¹ s⁻¹.

B2: LigE (Sphingobium sp. SYK-6) (protein)
chain: MARNNTITLYDLQLESGCTISPYVWRTKYALKHKGFDIDIVPGGFTGILERTGGRSERVPVIVDDGEWVLDSWVIAEYLDEKYPDRPMLFEGPTQKNLMKFLDNWLWSTAVGPWFRCYILDYHDLSLPQDRDYVRWSREQWFLGGQRLEDVQAGREDRLPLVPPTLEPFRRILAETKWLGGDQPNFADYSALAVFLWTASVARTPPLTEDDPLRDWLDRGFDLFDGLGRHPGMNPLFGLKLREGDPEPFVRQTGPAGAGGQALNKGPQTTKMPPRVAEKAD
notes: full-length LigE (282 residues), E. coli, synthesized gene in pCPD, C-terminal CPD-His tag cleaved off after a leucine; dimer
On to B2, for which, in the series “purified protein [2]”, the Km was determined as 554 ± 16 µM, the Vmax was found to be 59.7 µmol/min/mg, the turnover number (kcat) amounted to 31.9 ± 0.6 s⁻¹ and the kcat/Km amounted to 57600 ± 4800 M⁻¹ s⁻¹.
